Test [1] deals with T1, Human OX40 expressed on transfected Jurkat or CHO cells (human, UniProt P43489 29-277).
T1 construct: also called human OX40/Jurkat; human OX40/CHO
T1 sequence: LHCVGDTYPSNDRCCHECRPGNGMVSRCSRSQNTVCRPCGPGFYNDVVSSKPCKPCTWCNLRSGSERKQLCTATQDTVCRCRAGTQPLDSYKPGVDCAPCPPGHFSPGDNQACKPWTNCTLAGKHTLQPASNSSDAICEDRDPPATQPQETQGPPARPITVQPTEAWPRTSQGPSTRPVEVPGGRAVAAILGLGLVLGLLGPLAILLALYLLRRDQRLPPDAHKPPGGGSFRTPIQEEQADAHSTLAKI
Briefly: flow cytometry, whole cell binding to human OX40-expressing Jurkat cells, Alexa Fluor488 anti-human IgG Fc, Geo MFI. Background: Flow cytometry measures light scatter and fluorescence of single cells or particles in a stream.

Test [2] has as its target T2, Fc-fused mouse OX40 ECD (mouse, UniProt P47741 20-211).
T2 construct: extracellular domain; also called recombinant mouse OX40 ECD; not shown: Fc
T2 sequence (looked up): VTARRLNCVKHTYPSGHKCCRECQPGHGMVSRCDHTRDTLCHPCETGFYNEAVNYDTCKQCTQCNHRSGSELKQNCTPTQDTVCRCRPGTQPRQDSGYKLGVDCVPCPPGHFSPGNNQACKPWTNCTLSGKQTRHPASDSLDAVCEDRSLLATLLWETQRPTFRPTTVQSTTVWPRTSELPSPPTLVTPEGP
Briefly: ELISA: plate coated with Fc-fused mouse OX40 ECD, biotin-labeled c5E10, HRP-avidin, OD450. Here is the method: The protein was expressed in ExpiCHO cells, and purified by Protein A affinity chromatography. […] Briefly, 1 μg/ml of Fc-fused human or mouse OX40 ECD was coated in a 96-well high binding plate at 4° C. overnight.
In general terms: ELISA stands for enzyme-linked immunosorbent assay.

Test [3] addresses T3, Human CTLA4 expressed on transfected CHO or Jurkat cells (human, UniProt P16410 36-222).
T3 construct: also called human CTLA4/CHO; human CTLA4/Jurkat
T3 sequence: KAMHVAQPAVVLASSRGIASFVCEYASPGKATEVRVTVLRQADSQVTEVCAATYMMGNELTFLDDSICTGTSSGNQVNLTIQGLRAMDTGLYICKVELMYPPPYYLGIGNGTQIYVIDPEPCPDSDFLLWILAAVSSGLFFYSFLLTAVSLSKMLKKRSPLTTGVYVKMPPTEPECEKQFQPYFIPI
Briefly: flow cytometry, whole cell binding to human CTLA4-expressing CHO cells, Alexa Fluor488 anti-human IgG Fc, Geo MFI.

The target of test [4] is T4, Recombinant human OX40 extracellular domain fused to human IgG1 Fc (human, UniProt P43489 29-214).
T4 construct: Produced in-house; also called OX40 ECD-Fc; human OX40 ECD-Fc; not shown: human IgG1 Fc
T4 sequence: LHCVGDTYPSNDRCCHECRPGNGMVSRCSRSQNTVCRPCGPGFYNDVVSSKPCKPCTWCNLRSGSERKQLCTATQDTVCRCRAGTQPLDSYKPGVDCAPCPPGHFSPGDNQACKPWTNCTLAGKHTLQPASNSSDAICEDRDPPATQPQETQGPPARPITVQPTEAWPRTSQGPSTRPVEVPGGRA
As to the kind of experiment: ELISA of VHH supernatants on plates pre-coated with human OX40 ECD-Fc or human OX40 ECD-His.

Positions count from the first letter of the chain named.

B1: Ipilimumab (anti-CTLA4 antibody) (antibody, V domains shown)
VH: QVQLVESGGGVVQPGRSLRLSCAASGFTFSSYTMHWVRQAPGKGLEWVTFISYDGNNKYYADSVKGRFTISRDNSKNTLYLQMNSLRAEDTAIYYCARTGWLGPFDYWGQGTLVTVSS
VL: not shown
Turning to B1, the binding result in test [1] is “no binding”.

B2: c5E10 chimeric bivalent antibody (llama VHH clone 5E10 fused to human IgG1 Fc) (antibody, V domains shown)
VH: QVKLEESGGGSVQSGGSLRLACSASGPLGYPSIAWFRQVTGKDQEFVAGIAWSGGDTYYADSVKGRFAISRDTDRNTVELQMNNLKPEDTAVYYCAADTVVHYMGRHDIRDREEYDHWGQGTQVTVSS
notes: Bivalent VHH-Fc, human IgG1 Fc; also called c5E10-Fc; c5E10-bi
B2: the binding result in test [2] and in test [3] was “no binding” throughout.

B3: 5E10 llama VHH (VHH)
VHH: B2 VH with Q120P
notes: VHH secreted into the culture supernatant from phagemid pADL-23c; also called c5E10 VHH
As for B3, the binding result in test [4] was “binds”.

(Values after patent US20240383996A1 (SHANGHAI HENLIUS BIOTECH, published 2024).)
